Like-named read-outs stand apart in the source and are kept apart here.
T1: recombinant mouse VISTA (His-tagged) (mouse, UniProt Q9D659 33-191)
T1 construct: also called murine VISTA; mVISTA
T1 sequence (looked up): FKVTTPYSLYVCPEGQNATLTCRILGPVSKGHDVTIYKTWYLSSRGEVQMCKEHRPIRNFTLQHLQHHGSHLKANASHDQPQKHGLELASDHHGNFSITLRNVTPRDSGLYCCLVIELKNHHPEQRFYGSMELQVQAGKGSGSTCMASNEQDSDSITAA

T2: recombinant rat VISTA (His-tagged) (rat, UniProt A0ABK0L5H3 33-192)
T2 sequence: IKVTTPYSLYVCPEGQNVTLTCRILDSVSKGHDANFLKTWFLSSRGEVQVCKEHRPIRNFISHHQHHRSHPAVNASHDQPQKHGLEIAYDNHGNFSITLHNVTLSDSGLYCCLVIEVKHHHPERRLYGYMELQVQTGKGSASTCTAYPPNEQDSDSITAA

T3: human B7H3 (human, UniProt Q5ZPR3 29-461, limits assumed)
T3 construct: also called CD276
T3 sequence (looked up): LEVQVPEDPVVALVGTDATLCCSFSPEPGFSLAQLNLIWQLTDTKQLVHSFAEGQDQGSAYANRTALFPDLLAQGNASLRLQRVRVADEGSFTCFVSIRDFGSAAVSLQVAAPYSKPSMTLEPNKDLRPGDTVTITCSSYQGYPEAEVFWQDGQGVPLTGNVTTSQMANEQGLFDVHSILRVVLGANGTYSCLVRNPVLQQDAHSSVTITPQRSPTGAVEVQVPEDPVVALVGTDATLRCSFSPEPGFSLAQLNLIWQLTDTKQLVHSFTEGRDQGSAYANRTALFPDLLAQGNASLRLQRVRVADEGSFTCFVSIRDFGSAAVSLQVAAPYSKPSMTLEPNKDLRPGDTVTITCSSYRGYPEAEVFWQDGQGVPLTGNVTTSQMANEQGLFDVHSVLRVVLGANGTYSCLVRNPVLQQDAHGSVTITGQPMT

T4: human B7H4 (human, UniProt Q7Z7D3 25-258, limits assumed)
T4 construct: also called VTCN1
T4 sequence (looked up): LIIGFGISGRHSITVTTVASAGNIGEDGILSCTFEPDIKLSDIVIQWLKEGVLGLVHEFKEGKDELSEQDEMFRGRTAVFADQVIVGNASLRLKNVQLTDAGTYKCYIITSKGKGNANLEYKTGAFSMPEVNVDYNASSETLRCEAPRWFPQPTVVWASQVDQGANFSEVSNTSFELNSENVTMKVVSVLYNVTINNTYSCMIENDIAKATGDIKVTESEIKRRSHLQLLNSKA

T5: human B7H6 (human, UniProt Q68D85 25-262)
T5 construct: also called NCR3LG1
T5 sequence (looked up): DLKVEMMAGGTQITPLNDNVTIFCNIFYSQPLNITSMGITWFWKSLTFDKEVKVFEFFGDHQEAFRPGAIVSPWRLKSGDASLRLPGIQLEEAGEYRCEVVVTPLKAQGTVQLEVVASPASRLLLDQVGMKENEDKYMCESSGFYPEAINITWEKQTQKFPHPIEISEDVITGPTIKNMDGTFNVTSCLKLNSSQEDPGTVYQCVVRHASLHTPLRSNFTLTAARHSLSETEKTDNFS

T6: human B7H7 (human, UniProt Q9UM44 23-344)
T6 construct: also called HHLA2
T6 sequence (looked up): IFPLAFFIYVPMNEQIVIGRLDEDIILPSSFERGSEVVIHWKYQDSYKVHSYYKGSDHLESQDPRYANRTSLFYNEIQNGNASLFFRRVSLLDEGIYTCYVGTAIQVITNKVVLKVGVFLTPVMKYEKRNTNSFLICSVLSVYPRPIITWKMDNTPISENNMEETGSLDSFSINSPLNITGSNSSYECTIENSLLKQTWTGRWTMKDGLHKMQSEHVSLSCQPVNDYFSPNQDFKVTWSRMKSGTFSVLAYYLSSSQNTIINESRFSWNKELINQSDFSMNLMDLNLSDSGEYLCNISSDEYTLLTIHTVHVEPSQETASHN


How the values were obtained:
[1] = biological target: T7, recombinant human VISTA (His-tagged) (human, UniProt Q9H7M9 33-194); test: ELISA, plate coated with human VISTA
T7 construct: bought soluble protein (Sino Biological); also called hVISTA; human VISTA polypeptide

[2] = biological target: T1, recombinant mouse VISTA (His-tagged); test: ELISA, plate coated with mouse VISTA; unit nM from the legend paragraph 698
[3] = biological target: T8, human PD-L1 (human, UniProt Q9NZQ7 19-239); test: BLI (Octet), His-tagged human PD-L1 on anti-Penta-HIS biosensor, antibody 500-15.6 nM
T8 construct: captured through a His tag in the BLI experiments; also called hPD-L1; B7H1/PDL-1
T8 sequence (Q9NZQ7 19-239 limits assumed): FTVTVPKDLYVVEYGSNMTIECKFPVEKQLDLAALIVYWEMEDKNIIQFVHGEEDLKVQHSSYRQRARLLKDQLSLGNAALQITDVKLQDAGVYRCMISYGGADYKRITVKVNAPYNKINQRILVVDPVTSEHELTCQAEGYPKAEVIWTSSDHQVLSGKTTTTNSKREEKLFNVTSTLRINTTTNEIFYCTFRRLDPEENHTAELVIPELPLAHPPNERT
Description: Finally, the biosensors were incubated for 120 sec in PBS pH 7.2 to obtain the dissociation curves. Kinetic and affinity constants were calculated by global fitting of the association and dissociation data to a 1:1 binding model.

[4] = biological target: T1, recombinant mouse VISTA (His-tagged); test: ELISA, plate coated with mouse VISTA; unit nM from the legend paragraph 697
[5] = biological target: T1, recombinant mouse VISTA (His-tagged); test: BLI (Octet), 1:1 global fit, His-tagged mouse VISTA captured
[6] = biological target: T7, recombinant human VISTA (His-tagged); test: BLI (Octet), 1:1 global fit, His-tagged human VISTA captured
[7] = biological target: T1, recombinant mouse VISTA (His-tagged); test: BLI (Octet), 1:1 global fit, His-tagged mouse VISTA captured; remark: listed apart in the source
[8] = biological target: T2, recombinant rat VISTA (His-tagged); test: ELISA, plate coated with rat VISTA
[9] = biological target: T7, recombinant human VISTA (His-tagged); test: ELISA, plate coated with human VISTA; remark: listed apart in the source
[10] = biological target: T3, human B7H3; test: ELISA, plate coated with the antigen
[11] = biological target: T4, human B7H4; test: ELISA, plate coated with the antigen
[12] = biological target: T5, human B7H6; test: ELISA, plate coated with the antigen
[13] = biological target: T6, human B7H7; test: ELISA, plate coated with the antigen
[14] = biological target: T9, human PD-1 (human, UniProt Q15116 25-167); test: ELISA, plate coated with the antigen
T9 sequence (Q15116 25-167 limits assumed): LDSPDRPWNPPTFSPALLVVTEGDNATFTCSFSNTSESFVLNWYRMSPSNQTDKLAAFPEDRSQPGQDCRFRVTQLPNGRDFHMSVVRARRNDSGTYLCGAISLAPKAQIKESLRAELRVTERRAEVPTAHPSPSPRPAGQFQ

[15] = biological target: T10, human CTLA4 (human, UniProt P16410 36-162); test: ELISA, plate coated with the antigen
T10 sequence (P16410 36-162 limits assumed): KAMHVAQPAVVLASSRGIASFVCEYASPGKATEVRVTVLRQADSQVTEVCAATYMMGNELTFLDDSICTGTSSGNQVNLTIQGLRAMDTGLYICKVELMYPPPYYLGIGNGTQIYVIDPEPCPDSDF

[16] = biological target: T7, recombinant human VISTA (His-tagged); test: ELISA, plate coated with human VISTA; unit nM from the legend paragraph 697
[17] = biological target: T1, recombinant mouse VISTA (His-tagged); test: ELISA, plate coated with mouse VISTA
[18] = biological target: T11, recombinant cynomolgus macaque VISTA (His-tagged) (cynomolgus macaque, UniProt A0A7N9IB00 33-194); test: ELISA, plate coated with cyno VISTA
T11 construct: also called cyno VISTA; cynomolgus monkey VISTA

[19] = biological target: T7, recombinant human VISTA (His-tagged); test: ELISA, plate coated with human VISTA; unit nM from the legend paragraph 698
[20] = biological target: T3, human B7H3; test: ELISA, plate coated with the antigen; remark: listed apart in the source
[21] = biological target: T4, human B7H4; test: ELISA, plate coated with the antigen; remark: listed apart in the source
[22] = biological target: T5, human B7H6; test: ELISA, plate coated with the antigen; remark: listed apart in the source
[23] = biological target: T6, human B7H7; test: ELISA, plate coated with the antigen; remark: listed apart in the source
[24] = biological target: T9, human PD-1; test: ELISA, plate coated with the antigen; remark: listed apart in the source
[25] = biological target: T10, human CTLA4; test: ELISA, plate coated with the antigen; remark: listed apart in the source
[26] = biological target: T7, recombinant human VISTA (His-tagged); test: ELISA, plate coated with human VISTA; remark: listed apart in the source

| EC50 [1] [nM] | EC50 [2] [nM] | binding result [3] | EC50 [4] [nM] | Kd [5] [nM] | koff [5] [s⁻¹] | kon [5] [M⁻¹ s⁻¹] | Kd [6] [nM] | koff [6] [s⁻¹] | kon [6] [M⁻¹ s⁻¹] | Kd [7] [nM] | koff [7] [s⁻¹] | kon [7] [M⁻¹ s⁻¹] | EC50 [8] [nM] | EC50 [16] [nM] | EC50 [17] [nM] | EC50 [18] [nM] | EC50 [19] [nM] | Binder | also measured |
| --- | --- | --- | --- | --- | --- | --- | --- | --- | --- | --- | --- | --- | --- | --- | --- | --- | --- | --- | --- |
| 0.0346 | 0.064 | no binding (tested: 500 nM) | 0.0045 | 0.17 | 8.2e-05 | 475000 | < 0.001 | < 1e-07 | 507000 | 0.489 | 0.00025 | 520000 | 0.217 | 0.0015 | 0.0365 | 0.0367 | 0.053 | anti-VISTA clone V4-C28 IgG1 (antibody, V domains shown) VH: QVQLQESGPGLVKPSDTLSLTCTVSGYSITSDYTWNWIRQTPGKGLEWIGHITYSGSVSYNPSLRSRVTISRDTSKNQFSLKLSSVTAADTATYSCARALYYPWYFDVWGTGTTVTVSS VL: EIVLTQSPATLSLSPGERATLSCRASSSVGYIHWYQQKPGQAPRPLIYATSYRATGIPARFSGSGSGTDNTLTISSLEPEDSAVYYCQQWSSYPPITFGGGTKLEVKR | EC50 (read off the curve) [9]: ~0.03 nM; binding result [10]: no binding (tested: log -7.5 M); binding result [11]: no binding (tested: log -7.5 M); binding result [12]: no binding (tested: log -7.5 M); binding result [13]: no binding (tested: log -7.5 M); binding result [14]: no binding (tested: log -7.5 M); binding result [15]: no binding (tested: log -7.5 M) |
| 0.0318 | 0.123 | no binding (tested: 500 nM) | 0.0013 | 0.005 | 2.8e-06 | 505000 | < 0.001 | < 1e-07 | 593000 | < 0.001 | < 1e-07 | 533000 | 0.206 | < 0.0007 | 0.0326 | 0.0272 | 0.088 | anti-VISTA clone V4-C30 IgG1 (antibody, V domains shown) VH: QVQLQESGPGLVKPSDTLSLTCTVSGYSITSDYTWNWIRQTPGKGLEWIGHITYSGSVSYNPSLRSRVTISRDTSKNQFSLKLSSVTAADTATYSCARALYYPWYFDVWGTGTTVTVSS VL: EIVLTQSPATLSLSPGERATLSCRASSSVGYIHWYQQKPGQAPRPLIYATYYRATGIPARFSGSGSGTDNTLTISSLEPEDSAVYYCQQWSSYPPITFGGGTKLEVKR | binding result [20]: no binding (tested: log -7.5 M); binding result [21]: no binding (tested: log -7.5 M); binding result [22]: no binding (tested: log -7.5 M); binding result [23]: no binding (tested: log -7.5 M); binding result [24]: no binding (tested: log -7.5 M); binding result [25]: no binding (tested: log -7.5 M); EC50 (read off the curve) [26]: ~0.02 nM |

From US20250313631A1 (HUMMINGBIRD BIOSCIENCE PTE, published 2025)
